From patent publication US20240158785A1 (Chugai, published 2024)
Substitutions are numbered along the chain they refer to.

Assays:
human serum albumin = biological target: T1, human serum albumin (human, UniProt P02768 25-609, biotin-labeled antigen (position not given)); experiment: phage ELISA: biotin-labeled HSA on a streptavidin plate, purified Fab-displaying phage, HRP anti-M13 antibody, absorbance 450 nm; with or without 10 mM ATP and adenosine
T1 construct: also called HSA

human IL-6 receptor [1] = biological target: T2, human IL-6 receptor (human, UniProt P08887 20-357, limits assumed, biotin-labeled in the ELISA and Octet assays (position not given)); experiment: ELISA: biotin-labeled hIL-6R on a streptavidin plate, purified IgG, absorbance 450 nm; with 1 mM kynurenine, tryptophan, phenylalanine, anthranilic acid, 3-hydroxykynurenine, kynurenic acid, or none (Table 14)
T2 construct: also called hIL-6R; biotin-labeled hIL-6R
T2 sequence: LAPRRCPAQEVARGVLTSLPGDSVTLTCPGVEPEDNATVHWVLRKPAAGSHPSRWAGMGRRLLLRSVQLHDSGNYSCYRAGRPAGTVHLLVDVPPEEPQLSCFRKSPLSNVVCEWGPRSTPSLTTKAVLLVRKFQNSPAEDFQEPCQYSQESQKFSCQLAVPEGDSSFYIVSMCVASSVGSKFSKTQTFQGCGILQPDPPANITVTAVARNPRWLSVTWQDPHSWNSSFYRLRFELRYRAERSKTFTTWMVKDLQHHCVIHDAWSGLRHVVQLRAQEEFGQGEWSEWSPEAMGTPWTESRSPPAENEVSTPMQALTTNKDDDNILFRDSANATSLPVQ

human IL-6 receptor [2] = biological target: T2, human IL-6 receptor; experiment: SPR (Biacore T200), antibody captured on protein A, hIL-6R as analyte, 100 µmol/L kynurenine, 25 C; 100 µmol/L kynurenine; Biacore, antibody captured, hIL-6R as analyte
human IL-6 receptor [3] = biological target: T2, human IL-6 receptor; experiment: SPR (Biacore T200), hIL-6R amine-coupled on CM5, antibody as analyte, equilibrium values, 1 mM ATP, 25 C; 1 mM ATP; Biacore, hIL-6R on CM5, antibody concentration series, 25 C
Method: The running buffer used was 20 mmol/L ACES, 150 mmol/L NaCl, 0.05% (w/v) Tween20, pH 7.4. The assay was performed at 25° C. hIL-6R was immobilized onto Sensor chip CM5 by amine coupling, and interacted with the antibodies as an analyte for 120 seconds to observe changes in the amount of binding. Antibodies were diluted with the running buffer or the running buffer added with any one of ATP, ADP, AMP, cAMP, and adenosine (ADO). The final concentration of each small molecule was adjusted to 1 mM, and the final concentration of the antibody was adjusted to 1 μM. Meanwhile, under the 1 mM ATP condition, the assay was carried out with a series of stepwise antibody concentrations. The dissociation constant KD (mol/L) of each clone for hIL-6R was calculated from a plot of equilibrium values against antibody concentration. The parameters were calculated using the Biacore T200 Evaluation Software (GE Healthcare).

B1: HSADSA1-6_020 (Fab, V domains shown)
VH: EVQLVESGGDLVKPGGGLRLSCAASGFTFSSHTMNWVRQAPGKGLEWVSSISSRSNHATYADSVKGRFTISRDNAKNSLYLQMNSLRAEDTAVYYCARFGKKGRYLWVFDYWGQGTLVTVSS
VL: QSALTQPPSASGSPGQTVTISCTGTSSDVGDYNYVSWYQQHPGKAPKLMIYYVSKRPSGVPDRFSGSKSGNTASLTVSGLQAEDEADYFCSLTTDSLNPVFGGGTKLTVL
notes: also called clone HSADSA1-6_020
B1: binds (human serum albumin).

B2: GC413 (antibody, V domains shown)
VH: QVQLVQSGAEVKKPGASVKVSCKASGYTFTDYEMHWIRQPPGQGLEWIGAIDPKTGDTAYSQKFKGRVTLTADKSTSTAYMELSSLTSEDTAVYYCTRFYSYTYWGQGTLVTVSS
VL: DIVMTQSPLSLPVTPGEPASISCRSSQSLVHSNRNTYLHWYQQKPGQAPRLLIYKVSNRFSGVPDRFSGSGSGTDFTLKISRVEAEDVGVYYCSQNTHVPPTFGQGTKLEIK
notes: also called anti-human glypican 3 antibody GC413; negative control
B2: no binding (tested: 2.5 µg/mL) (human IL-6 receptor [1]).

B3: 6RNMSC1-2_F02 (antibody, human IgG1, V domains shown)
VH: QVQLVQSGAEVKKPGSSVKVSCKASGGTFSSYAISWVRQAPGQGLEWMGGIIPIFGTANYAQKFQGRVTITADESTSTAYMELSSLRSEDTAVYYCARDAPVVARPRGAFDIWGQGTMVTVSS
VL: DIVMTQTPLSSPVTLGQPASISCRSSQSLVHSDGNTYLSWLQQRPGQPPRLLIHEISNRFSGVPDRFSGSGAGTNFTLKISRVEAEDVGVYYCMQATQFPRTFGQGTKVEIK
notes: Variable region genes were inserted into a human IgG1/Kappa expression plasmid; also called clone 6RNMSC1-2_F02; antibody 6RNMSC1-2_F02
For B3, the Kd (human IL-6 receptor [2]) was 1500 nM.

B4: 6RAD2C1-4_001 (antibody, human IgG1, lambda, V domains shown)
VH: EVQLVESGGDLVKPGGGLRLSCAASGFTFSGHTMNWVRQAPGKGLEWVSSISSRSNYIYYADSVKGRFTISRDNAKNSLYLQMNSLRAEDTAVYYCARYGRLHDRNWVFDYWGQGTLVTVSS
VL: QSALTQPPSASGSPGQTVTISCTGTSTDVGDYNYVSWYQQHPGKAPKLMIYQVSKKPSGVPDRFSGSKSGNTASLTVSGLQAEDEADYFCSSRSYGAGVVFGGGTKLTVLG
notes: also called 6RAD2C1-4_01
With B4 the Kd (human IL-6 receptor [3]) was 300 nM.

B5: 6RAD2C1-4_005 (antibody, human IgG1, lambda, V domains shown)
VH: B4 VH with G31T, N56S, Y59H, Y99F, R101K, H103G, D104E
VL: B4 VL with S92V, Y95D, A97H, V99P, V100M
notes: also called 6RAD2C1-4_05
With B5 the Kd (human IL-6 receptor [3]) was 340 nM.

B6: 6RAD2C1-4_011 (antibody, human IgG1, lambda, V domains shown)
VH: B4 VH with N56S, R101A, H103G, D104Q, R105M
VL: B4 VL with Q52S, K56R, Y95S, G96S, A97M, G98N, V100L
notes: also called 6RAD2C1-4_11
Work on B6 yielded a Kd (human IL-6 receptor [3]) of 230 nM.

B7: 6RAD2C1-4_026 (antibody, human IgG1, lambda, V domains shown)
VH: B4 VH with H32Y, I58A, Y59H, H103G
VL: B4 VL with D31A, Q52K, S92L, S94A, Y95A, G96T, A97T, V100L
notes: also called 6RAD2C1-4_26
Binder B7 has a Kd (human IL-6 receptor [3]) of 210 nM.

B8: 6RAD2C1-4_030 (antibody, human IgG1, lambda, V domains shown)
VH: B4 VH with G31S, H32Y, N56G, I58A, Y99F, R101A, H103N, D104T, R105L
VL: B4 VL with S92T, S94T, Y95A, G96N, V100L
notes: also called 6RAD2C1-4_30
B8 showed a Kd (human IL-6 receptor [3]) of 330 nM.

B9: 6RAD2C1-4_076 (antibody, human IgG1, lambda, V domains shown)
VH: B4 VH with H32Y, N56S, Y59D, R101A, H103G, D104Q
VL: QSALTQPPSASGSPGQTVTISCTGTSTDVGDYNYVSWYQQHPGKAPKLMIYQTSKRPSGVPDRFSGSKSGNTASLTVSGLQAEDEADYFCSSRSIKHPVFGGGTKLTVLG
notes: also called 6RAD2C1-4_76
B9 was tested, and the Kd (human IL-6 receptor [3]) was 250 nM.

B10: 6RDL3C1-4_085 (antibody, human IgG1, lambda, V domains shown)
VH: B4 VH
VL: B4 VL
notes: also called 6RDL3C1-4_85
B10 showed a Kd (human IL-6 receptor [3]) of 390 nM.
